The record followed here is article PMC12775136 (2025).

As usually defined, the Kd is the concentration at which binding is half-saturated. Low readings indicate tighter binding, high ones weaker binding.

In this assay the target is T1, 3′hExofl (human, UniProt Q8IV48 1-349).
T1 chain: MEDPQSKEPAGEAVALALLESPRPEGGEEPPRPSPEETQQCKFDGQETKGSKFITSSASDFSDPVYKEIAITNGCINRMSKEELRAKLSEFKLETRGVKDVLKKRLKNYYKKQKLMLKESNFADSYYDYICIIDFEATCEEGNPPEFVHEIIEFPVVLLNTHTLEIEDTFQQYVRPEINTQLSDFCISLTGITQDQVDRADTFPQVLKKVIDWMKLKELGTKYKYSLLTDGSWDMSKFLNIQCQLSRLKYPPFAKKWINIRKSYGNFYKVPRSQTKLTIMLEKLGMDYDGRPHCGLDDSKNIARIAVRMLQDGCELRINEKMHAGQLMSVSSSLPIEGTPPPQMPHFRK
Nature of the assay: NMR.

B1: UPF2-AL (domain or fragment)
chain: NDKDSKDSMTEGENLEEDEEEEEGGAETEEQSGNESEVNEPEEEEGSDNDDDEGEEEEEENTDYLTDSNKENETDEENTEVMIKGGGLKH
B1 displayed a Kd of 200 µM.
